Earlier results, collected in paper PMC8507859.
Where two headings read alike, the source gives them in different places.

What was measured:
[1] = biological target: Integrin α2 (Homo sapiens) (UniProt P17301)
MMP-14 (Homo sapiens) [2] = biological target: MMP-14 (Homo sapiens) (UniProt P50281)
MMP-14 (Homo sapiens) [3] = biological target: MMP-14 (Homo sapiens) (UniProt P50281); remark: listed apart in the source

Lumican, sequence (P51884 19-338): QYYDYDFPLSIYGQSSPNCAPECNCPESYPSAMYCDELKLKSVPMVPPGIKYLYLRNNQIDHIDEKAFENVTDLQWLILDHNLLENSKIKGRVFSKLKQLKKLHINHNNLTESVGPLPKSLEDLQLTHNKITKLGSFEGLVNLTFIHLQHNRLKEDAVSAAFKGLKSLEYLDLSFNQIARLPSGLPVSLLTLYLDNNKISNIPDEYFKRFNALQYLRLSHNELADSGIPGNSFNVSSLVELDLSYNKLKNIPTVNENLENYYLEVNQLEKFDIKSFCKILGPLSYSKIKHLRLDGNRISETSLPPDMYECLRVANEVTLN
Integrin α2 (Homo sapiens), sequence (P17301 30-1132): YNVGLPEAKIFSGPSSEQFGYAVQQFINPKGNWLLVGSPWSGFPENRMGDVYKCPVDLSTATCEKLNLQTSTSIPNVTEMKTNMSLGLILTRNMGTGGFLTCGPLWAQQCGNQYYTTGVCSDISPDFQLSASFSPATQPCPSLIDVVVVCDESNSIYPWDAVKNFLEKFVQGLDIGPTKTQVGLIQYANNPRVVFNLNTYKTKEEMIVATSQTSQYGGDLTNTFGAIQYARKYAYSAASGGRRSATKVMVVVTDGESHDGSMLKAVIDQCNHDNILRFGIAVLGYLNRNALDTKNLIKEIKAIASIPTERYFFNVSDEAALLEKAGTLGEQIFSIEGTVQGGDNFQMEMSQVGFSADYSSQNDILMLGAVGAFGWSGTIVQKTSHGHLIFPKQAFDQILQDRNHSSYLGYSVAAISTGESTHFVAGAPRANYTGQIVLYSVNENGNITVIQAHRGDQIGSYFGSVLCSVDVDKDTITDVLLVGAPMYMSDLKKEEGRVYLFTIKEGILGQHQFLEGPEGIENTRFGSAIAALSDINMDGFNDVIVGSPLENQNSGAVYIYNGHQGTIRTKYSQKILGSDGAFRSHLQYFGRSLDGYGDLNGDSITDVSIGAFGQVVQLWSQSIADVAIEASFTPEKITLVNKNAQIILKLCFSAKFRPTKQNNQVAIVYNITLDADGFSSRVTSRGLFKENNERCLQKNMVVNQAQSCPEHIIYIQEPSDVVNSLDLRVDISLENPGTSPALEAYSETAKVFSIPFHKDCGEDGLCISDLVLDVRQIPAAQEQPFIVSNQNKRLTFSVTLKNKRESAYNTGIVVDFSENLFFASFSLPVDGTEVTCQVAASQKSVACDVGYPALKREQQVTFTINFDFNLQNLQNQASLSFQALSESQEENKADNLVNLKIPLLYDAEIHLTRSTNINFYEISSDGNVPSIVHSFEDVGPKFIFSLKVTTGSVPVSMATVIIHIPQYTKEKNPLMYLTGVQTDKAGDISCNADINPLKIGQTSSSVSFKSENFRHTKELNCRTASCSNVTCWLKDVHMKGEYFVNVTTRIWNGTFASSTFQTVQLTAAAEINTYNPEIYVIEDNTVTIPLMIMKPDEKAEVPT
TIMP-2, sequence (P16035 27-220): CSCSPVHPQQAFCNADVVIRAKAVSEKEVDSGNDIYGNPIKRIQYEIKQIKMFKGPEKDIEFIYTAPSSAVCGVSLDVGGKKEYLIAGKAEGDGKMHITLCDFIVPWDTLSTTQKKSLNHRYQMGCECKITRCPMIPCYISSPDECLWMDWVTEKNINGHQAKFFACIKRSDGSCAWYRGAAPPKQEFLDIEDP
TIMP-1, sequence (P01033 24-207): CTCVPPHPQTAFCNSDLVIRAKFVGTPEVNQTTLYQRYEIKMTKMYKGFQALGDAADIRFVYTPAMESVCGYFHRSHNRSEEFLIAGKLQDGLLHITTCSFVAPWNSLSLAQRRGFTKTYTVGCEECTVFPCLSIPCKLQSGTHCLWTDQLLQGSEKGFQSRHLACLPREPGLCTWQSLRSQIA

In the case of Lumican (from UniProt P51884), the Kd [1] is given as 200 nM.
In the case of TIMP-1 (from UniProt P01033), the Kd (MMP-14 (Homo sapiens) [2]) is given as 1530 nM.
For TIMP-2 (from UniProt P16035), the Kd (MMP-14 (Homo sapiens) [3]) is given as 56.1 nM.
